Test results taken from patent publication US20160346281A1.

Target: Myc-tagged Abl (Abl-Myc), Drosophila Abl (Drosophila melanogaster) (UniProt P00522)
Assay: cell-based or functional assay

Chain of Myc-tagged Abl (Abl-Myc), Drosophila Abl (Drosophila melanogaster) (P00522 whole entry): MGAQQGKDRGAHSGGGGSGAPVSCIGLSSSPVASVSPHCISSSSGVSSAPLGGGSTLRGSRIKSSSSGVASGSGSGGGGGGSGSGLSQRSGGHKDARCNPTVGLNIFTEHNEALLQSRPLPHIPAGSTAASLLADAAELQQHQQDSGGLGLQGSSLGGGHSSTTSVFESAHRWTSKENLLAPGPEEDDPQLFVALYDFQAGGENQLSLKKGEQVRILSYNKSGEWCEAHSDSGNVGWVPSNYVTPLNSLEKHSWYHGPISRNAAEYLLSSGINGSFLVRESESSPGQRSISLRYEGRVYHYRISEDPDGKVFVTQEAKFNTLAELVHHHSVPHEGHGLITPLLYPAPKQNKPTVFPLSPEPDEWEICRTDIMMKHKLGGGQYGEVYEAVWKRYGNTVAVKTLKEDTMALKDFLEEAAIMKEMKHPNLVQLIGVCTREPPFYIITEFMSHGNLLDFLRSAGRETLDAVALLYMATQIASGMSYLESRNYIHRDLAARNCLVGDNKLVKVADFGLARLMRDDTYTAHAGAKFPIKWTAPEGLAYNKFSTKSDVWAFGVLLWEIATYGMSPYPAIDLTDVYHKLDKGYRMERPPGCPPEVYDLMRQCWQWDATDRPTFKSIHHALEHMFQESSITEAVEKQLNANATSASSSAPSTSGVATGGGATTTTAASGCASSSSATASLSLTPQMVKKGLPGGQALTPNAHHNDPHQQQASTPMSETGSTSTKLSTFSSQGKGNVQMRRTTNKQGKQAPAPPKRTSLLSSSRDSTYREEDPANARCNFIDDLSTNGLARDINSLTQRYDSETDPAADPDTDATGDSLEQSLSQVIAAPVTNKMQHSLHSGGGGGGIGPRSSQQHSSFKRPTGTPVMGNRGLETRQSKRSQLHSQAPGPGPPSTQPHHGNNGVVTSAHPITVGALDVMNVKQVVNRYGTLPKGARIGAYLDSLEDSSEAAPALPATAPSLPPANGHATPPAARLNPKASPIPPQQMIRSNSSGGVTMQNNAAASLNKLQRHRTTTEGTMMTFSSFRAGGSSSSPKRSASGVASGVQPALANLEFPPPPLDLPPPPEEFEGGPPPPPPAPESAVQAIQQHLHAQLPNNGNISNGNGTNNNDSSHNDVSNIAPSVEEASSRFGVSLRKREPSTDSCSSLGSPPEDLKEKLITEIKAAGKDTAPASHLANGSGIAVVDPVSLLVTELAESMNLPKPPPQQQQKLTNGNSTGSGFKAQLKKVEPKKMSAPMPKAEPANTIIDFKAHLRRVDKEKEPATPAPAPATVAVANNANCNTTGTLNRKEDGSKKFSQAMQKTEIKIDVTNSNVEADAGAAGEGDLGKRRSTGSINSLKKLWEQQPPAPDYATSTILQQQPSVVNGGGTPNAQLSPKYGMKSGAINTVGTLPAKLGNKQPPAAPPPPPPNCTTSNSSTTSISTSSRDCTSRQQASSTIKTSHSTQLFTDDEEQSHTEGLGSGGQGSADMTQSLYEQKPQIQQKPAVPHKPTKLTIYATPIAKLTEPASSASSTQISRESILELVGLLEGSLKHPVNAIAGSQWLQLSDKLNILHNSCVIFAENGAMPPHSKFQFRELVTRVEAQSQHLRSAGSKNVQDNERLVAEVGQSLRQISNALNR

Question: With “GFP-tagged Dscam (Dscam[3.36.25.2]::GFP) (receptor)” as the substance, how does the Abl kinase activation (anti-phospho-Y412-Abl blot intensity normalized to total Abl-Myc, S2 cell lysates) read?
Answer: 2.6 fold
